Measurements as given in publication doi:10.1101/2025.07.11.664400 (bioRxiv, 2025).

Legend:
RecBΔNucCD [1] = target: T1, RecBΔNucCD (Escherichia coli, UniProt P08394;P07648;P04993 1-929;1-1122;1-608); test: fluorescence titration
RecBΔNucCD [2] = target: T1, RecBΔNucCD; test: fluorescence titration; remark: listed apart in the source
RecBCD [3] = target: T2, RecBCD (Escherichia coli, UniProt P08394;P07648;P04993 1-1180;1-1122;1-608); test: fluorescence titration
RecBΔNucCD [4] = target: T1, RecBΔNucCD; test: fluorescence competition
RecBCD [5] = target: T2, RecBCD; test: fluorescence competition
RecBΔNucCD [6] = target: T1, RecBΔNucCD; test: ITC
RecBΔNucCD [7] = target: T1, RecBΔNucCD; test: ITC; remark: listed apart in the source

B1: Reference DNA (dsDNA)
DNA 1: CCATGGCTCCTGAGCTAGCTGCAGTAGCCTAAAGGATGAAACTAGGATCTTATGCTCCAGTTTT
DNA 2: CTGGAGCATAAGATCCTAGTTTCATCCTTTAGGCTACTGCAGCTAGCTCAGGAGCCATGGTTTT
Question: B1 was tested. Which Ka (RecBΔNucCD [1]) did it give?
Answer: Its Ka is > 2e+09 M⁻¹.

Question: And the Ka (RecBΔNucCD [2])?
Answer: Its Ka is 1.6e+08 M⁻¹.

Question: And the Ka (RecBCD [3])?
Answer: Its Ka is 3.2e+07 M⁻¹.

B2: Blunt ended DNA (dsDNA)
DNA 1: CCATGGCTCCTGAGCTAGCTGCAGTAGCCTAAAGGATGAAACTAGGATCTTATGCTCCAG
DNA 2: CTGGAGCATAAGATCCTAGTTTCATCCTTTAGGCTACTGCAGCTAGCTCAGGAGCCATGG
Question: B2 was tested. Which Ka (RecBΔNucCD [4]) did it give?
Answer: The Ka was 4.7e+07 M⁻¹.

Question: What about the Ka (RecBCD [5]) of the same binder?
Answer: The Ka was 1.4e+07 M⁻¹.

Question: And the Ka (RecBΔNucCD [6])?
Answer: The Ka was > 1e+09 M⁻¹.

Question: What about the Ka (RecBΔNucCD [7]) of the same binder?
Answer: The Ka was 1.2e+07 M⁻¹.
